Assays:
purified protein [1] = substrate: C[C@H](CCC(=O)O)[C@H]1CC[C@H]2[C@@H]3CC[C@@H]4C[C@H](O)CC[C@]4(C)[C@H]3C[C@H](O)[C@]12C; test: purified protein; conditions: oxidation, 10 mM MOPS pH 7.0, 37 °C
purified protein [2] = substrate: C[C@H](CCC(=O)O)[C@H]1CC[C@H]2[C@@H]3CC[C@@H]4CC(=O)CC[C@]4(C)[C@H]3C[C@H](O)[C@]12C; test: purified protein; conditions: reduction, 10 mM MOPS pH 7.0, 37 °C

B1: Elen_0690 (Eggerthella lenta DSM 2243) (protein)
chain: MGIYVITGATSGIGAKTAEILRERGHEVVNIDLNGGDINANLATKEGRAGAIAELHERFPEGIDAMICNAGVSGGKVPISLIISLNYFGATEMARGVFDLLEKKGGSCVVTSSNSIAQGAARMDVAGMLNNHADEDRILELVKDVDPAIGHVYYASTKYALARWVRRMSPDWGSRGVRLNAIAPGNVRTAMTANMLPEQRAAMEAIPVPTHFGEEPLMDPVEIANAMAFIASPEASGINGVVLFVDGGTDALLNSEKVY
For B1, which Km (purified protein [1]; cofactor NAD+) is on record?
The Km was 1280 ± 88 µM.

What about the kcat (purified protein [1]; cofactor NAD+) of the same protein?
Its kcat is 4.85 ± 0.117 s⁻¹.

B2: Elen_0198 (Eggerthella lenta DSM 2243) (protein)
chain: MYDDLKGKTVVVTGSSKGLGAAMARRFGAEGMNVVANYRSDEEGARETVRAIEEAGGAAAAVQADVSKNECVDALFDAAMFSFGGVDIWVNNAGIEVASPSDRKSIEEWQRVIDVNLTGVFAGCRRAIDHFLDRKMPGVIINLSSVHEIIPWPHFADYAASKAGVGMLTKTLALEYADRGIRVNAIAPGAMNTPINAEKFADPEARAATERLIPMGYVGAPEDVAAAAAWLASDQASYVTGTTLFVDGGMTLYPGFQFGQG
What does the source list for B2?
Km (purified protein [2]; cofactor NADH): 2660 ± 539 µM; kcat (purified protein [2]; cofactor NADH): 9.73 ± 0.583 s⁻¹

B3: Rumgna_02133 (Mediterraneibacter gnavus ATCC 29149) (protein)
chain: MFMMLKNKVAIVTGGTRGIGFAVVKKFIENGAAVSLWGSRQETVDQALEQLKELYPDAKISGKYPSLKDTAQVTAMINQVKEEFGAVDILVNNAGISQSTSFYNYQPEEFQKIVDLNVTAVFNCSQAAAKIMKEQGGGVILNTSSMVSIYGQPSGCGYPASKFAVNGLTKSLARELGCDNIRVNAVAPGITRTDMVAALPEAVIKPLIATIPLGRVGEPEDIANAFLFLASDMASYVTGEILSVDGAARS
Which Km (purified protein [1]; cofactor NADP+) does the source give for B3 here?
Its Km is 369 ± 30 µM.

What about the kcat (purified protein [1]; cofactor NADP+) of the same protein?
The kcat was 1.66 ± 0.0333 s⁻¹.

B4: Rumgna_00694 (Mediterraneibacter gnavus ATCC 29149) (protein)
chain: MNFGGFIMGRFDEKIMLVTGATSGIGRAVAIRAAKEGATVVAVGRNEERGAAVVAAMEEAGGKGEFMKCDVSNKDAVKALFAEIQEKYGKLDVAVNNAGIVGASKTVEELEDDDWFQVIDANLNSCFFCCREEVKLMQPSGGAIVNVSSVAGMRGFPSAAAYVASKHAVSGLTKAVAVDYATKGITCNAICPAGTDTPLTERSSADIKTRMAEIAAQGKDPMEWLKNSMLSGKTETLQKKNATPEEQAATILYFASDEARHITGSIVASDGGFTTY
With B4 as the protein, how does the Km (purified protein [2]; cofactor NADPH) read?
Its Km is 56.0 ± 5.6 µM.

What about the kcat (purified protein [2]; cofactor NADPH) of the same protein?
The kcat was 157 ± 4.53 s⁻¹.

B5: Elen_1325 (Eggerthella lenta DSM 2243) (protein)
chain: MSEARHNPVLAGQTAVITGGASGIGKSIVQRFLEAGASCLAADLNEEALAALKQELAEYGDKLDVVKVDVSNRDDVEGMVDRAVQTFGQMDIIVNNAGIMDNLLPIAEMDDDVWERLMKVNLNSVMYGTRKAVRYFMERGEGGVIINTASLSGLCAGRGGCAYTASKFAVVGLTKNVAFMYADTGIRCNAICPGNTQTNIGVGMRQPSERGMAKATTGYAGATRSGTPEEISAAAAFLASDQAGFINGETLTIDGGWSAY
For B5, which Km (purified protein [2]; cofactor NADH) is on record?
Its Km is 2630 ± 365 µM.

What about the kcat (purified protein [2]; cofactor NADH) of the same protein?
Its kcat is 29.2 ± 1.1 s⁻¹.

From paper PMC4543561
